This note sets out measurements from article PMC5289526, “Crystal Structure and Catalytic Mechanism of CouO, a Versatile C-Methyltransferase from Streptomyces rishiriensis” (PLoS ONE, 2017).

The data set deals with the molecule itself. The experiment in a line: SEC; last step of purification; HiLoad 16/60 Superdex 200 pg, 1 ml/min, Hepes pH 7, 100mM NaCl; calibrated with Bio-Rad gel filtration standard. (In general: Size exclusion chromatography separates by hydrodynamic size, large species first.)

B1: CouO, C-methyltransferase from Streptomyces rishiriensis (enzyme)
chain: MKIEPITGSEAEAFHRMGSRAFERYNEFVDLLVGAGIADGQTVVDLCCGSGELEIILTSRFPSLNLVGVDLSEDMVRIARDYAAEQGKELEFRHGDAQSPAGMEDLLGKADLVVSRHAFHRLTRLPAGFDTMLRLVKPGGAILNVSFLHLSDFDEPGFRTWVRFLKERPWDAEMQVAWALAHYYAPRLQDYRDALAQAADETPVSEQRIWVDDQGYGVATVKCFARRAAA
notes: CouO, SAM-dependent C-methyltransferase of coumermycin A1 biosynthesis, Streptomyces rishiriensis; expected MW 26 kDa; also called CouO-WT; source: purified (last step size exclusion chromatography)
As to B1, the stoichiometry N (in general, the number of molecules, sites or subunits per partner or assembly) was found to be 2.
